According to paper PMC4595643, “Pathways of allosteric regulation in Hsp70 chaperones” (Nature Communications, 2015):
Ends that are not written are not given here. * marks the point of attachment. IAANS = 2-(4'-(iodoacetamido)anilino)naphthalene-6-sulfonic acid label, O=C(C*)Nc1ccc(Nc2ccc3cc(S(=O)(=O)O)ccc3c2)cc1; HiLyte Fluor 488 maleimide = HiLyte Fluor 488-maleimide (Anaspec) label

Columns and labels:
Conditions in all cases: both partners purified
wild-type DnaK [1] = target: T1, wild-type DnaK (Escherichia coli, UniProt P0A6Y8 1-638); experiment: MST; 100 nM HiLyte Fluor 488-labelled peptide with 0.6 nM-10 μM DnaK, HKM buffer (25 mM HEPES/KOH pH 7.6, 50 mM KCl, 5 mM MgCl2) with 0.1% Tween-20, incubated at least 30 min, 30 °C, Monolith NT.115
T1 construct: DnaK, the Hsp70 of Escherichia coli; also called DnaKwt; Wt; source: E. coli ΔdnaK52 cells (BB1553), purified (Ni-IDA, Resource Q), nucleotides removed

DnaK-V440A [2] = target: T2, DnaK-V440A (Escherichia coli, UniProt P0A6Y8 1-638, V440A); experiment: as above
T2 construct: DnaK, the Hsp70 of Escherichia coli, Val440 replaced by alanine; source: E. coli ΔdnaK52 cells (BB1553), purified (Ni-IDA, Resource Q), nucleotides removed

DnaK-L484A [3] = target: T3, DnaK-L484A (Escherichia coli, UniProt P0A6Y8 1-638, L484A); experiment: as above
T3 construct: DnaK, the Hsp70 of Escherichia coli, Leu484 replaced by alanine; source: E. coli ΔdnaK52 cells (BB1553), purified (Ni-IDA, Resource Q), nucleotides removed

DnaK-D148A [4] = target: T4, DnaK-D148A (Escherichia coli, UniProt P0A6Y8 1-638, D148A); experiment: as above
T4 construct: DnaK, the Hsp70 of Escherichia coli, Asp148 replaced by alanine; source: E. coli ΔdnaK52 cells (BB1553), purified (Ni-IDA, Resource Q), nucleotides removed

wild-type DnaK [5] = target: T1, wild-type DnaK; experiment: fluorescence dissociation kinetics (chase with unlabelled peptide); no nucleotide; 0.5 μM DnaK and 0.5 μM IAANS-labelled peptide pre-incubated at least 30 min, then mixed with 50-fold excess of unlabelled peptide; HKM buffer, 30 °C; Perkin Elmer LS55
DnaK-F146A = target: T5, DnaK-F146A (Escherichia coli, UniProt P0A6Y8 1-638, F146A); experiment: as above
T5 construct: DnaK, the Hsp70 of Escherichia coli, Phe146 replaced by alanine; source: E. coli ΔdnaK52 cells (BB1553), purified (Ni-IDA, Resource Q), nucleotides removed

DnaK-D148A [6] = target: T4, DnaK-D148A; experiment: as above
DnaK-Y145F = target: T6, DnaK-Y145F (Escherichia coli, UniProt P0A6Y8 1-638, Y145F); experiment: as above
T6 construct: DnaK, the Hsp70 of Escherichia coli, Tyr145 replaced by phenylalanine; source: E. coli ΔdnaK52 cells (BB1553), purified (Ni-IDA, Resource Q), nucleotides removed

DnaK-Y145H = target: T7, DnaK-Y145H (Escherichia coli, UniProt P0A6Y8 1-638, Y145H); experiment: as above
T7 construct: DnaK, the Hsp70 of Escherichia coli, Tyr145 replaced by histidine; source: E. coli ΔdnaK52 cells (BB1553), purified (Ni-IDA, Resource Q), nucleotides removed

DnaK-Y145A = target: T8, DnaK-Y145A (Escherichia coli, UniProt P0A6Y8 1-638, Y145A); experiment: as above
T8 construct: DnaK, the Hsp70 of Escherichia coli, Tyr145 replaced by alanine; source: E. coli ΔdnaK52 cells (BB1553), purified (Ni-IDA, Resource Q), nucleotides removed

DnaK-D481A = target: T9, DnaK-D481A (Escherichia coli, UniProt P0A6Y8 1-638, D481A); experiment: fluorescence dissociation kinetics (chase with unlabelled peptide); in the presence of ATP; 0.5 μM DnaK and 0.5 μM IAANS-labelled peptide pre-incubated at least 30 min, then mixed with 50-fold excess of unlabelled peptide; HKM buffer, 30 °C; stopped flow
T9 construct: DnaK, the Hsp70 of Escherichia coli, Asp481 replaced by alanine; source: E. coli ΔdnaK52 cells (BB1553), purified (Ni-IDA, Resource Q), nucleotides removed

DnaK-D481K = target: T10, DnaK-D481K (Escherichia coli, UniProt P0A6Y8 1-638, D481K); experiment: as above
T10 construct: DnaK, the Hsp70 of Escherichia coli, Asp481 replaced by lysine; source: E. coli ΔdnaK52 cells (BB1553), purified (Ni-IDA, Resource Q), nucleotides removed

DnaK-V440A [7] = target: T2, DnaK-V440A; experiment: as above
DnaK-L484A [8] = target: T3, DnaK-L484A; experiment: as above

Measured: binding result

B1: HiLyte Fluor 488-labelled σ32-Q132-Q144-C (peptide)
peptide: QRKLFFNLRKTKQC(HiLyte Fluor 488 maleimide)
notes: residues Q132-Q144 of σ32, the E. coli heat shock transcription factor; cysteine added at the C-terminus of the peptide (the '-C' of its name); also called fluorescently labelled peptide derived from σ32
binds: wild-type DnaK [1] | DnaK-V440A [2] | DnaK-L484A [3] | DnaK-D148A [4]

B2: IAANS-labelled peptide σ32-Q132-Q144-C (peptide)
peptide: QRKLFFNLRKTKQC(IAANS)
notes: residues Q132-Q144 of σ32, the E. coli heat shock transcription factor; cysteine added at the C-terminus of the peptide (the '-C' of its name); also called 2-(4'-(iodoacetamido)anilino)naphthalene-6-sulfonic acid labelled σ32-Q132-Q144-C; substrate
not listed: wild-type DnaK [1] | DnaK-V440A [2] | DnaK-L484A [3] | DnaK-D148A [4]
binds: all other assays above
